Source: patent US20110088129A1

What was measured:
[1] = biological target: binding sites in brush border membrane vesicles (BBMV) from midguts of last instar Helicoverpa armigera larvae (Helicoverpa armigera); assay: homologous competition, 125I-Cry2Ab on H. armigera BBMV, LIGAND program
[2] = biological target: binding sites in brush border membrane vesicles (BBMV) from midguts of last instar Helicoverpa zea larvae (Helicoverpa zea); assay: homologous competition, 125I-Cry2Ab on H. zea BBMV, LIGAND program
[3] = biological target: binding sites in brush border membrane vesicles (BBMV) from midguts of last instar Helicoverpa zea larvae (Helicoverpa zea); assay: homologous competition on H. zea BBMV
[4] = biological target: binding sites in brush border membrane vesicles (BBMV) from midguts of last instar Helicoverpa armigera larvae (Helicoverpa armigera); assay: direct saturation assay, increasing 125I-Cry2Ab on fixed H. armigera BBMV (0.2 mg/ml)
[5] = biological target: binding sites in brush border membrane vesicles (BBMV) from midguts of last instar Helicoverpa armigera larvae (Helicoverpa armigera); assay: homologous competition on H. armigera BBMV

B1: Cry2Ab toxin (trypsin-activated Cry2Ab2 from recombinant B. thuringiensis strain BtIPS78/11) (ligand)
chain: NAVPLSITSSVNTMQQLFLNRLPQFQMQGYQLLLLPLFAQAANLHLSFIRDVILNADEWGISAATLRTYRDYLKNYTRDYSNYCINTYQSAFKGLNTRLHDMLEFRTYMFLNVFEYVSIWSLFKYQSLLVSSGANLYASGSGPQQTQSFTSQDWPFLYSLFQVNSNYVLNGFSGARLSNTFPNIVGLPGSTTTHALLAARVNYSGGISSGDIGASPFNQNFNCSTFLPPLLTPFVRSWLDSGSDREGVATVTNWQTESFETTLGLRSGAFTARGNSNYFPDYFIRNISGVPLVVRNEDLRRPLHYNEIRNIASPSGTPGGARAYMVSVHNRKNNIHAVHENGSMIHLAPNDYTGFTISPIHATQVNNQTRTFISEKFGNQGDSLRFEQNNTTARYTLRGNGNSYNLYLRVSSIGNSTIRVTINGRVYTATNVNTTTNNDGVNDNGARFSDINIGNVVASSNSDVPLDINVTLNSGTQFDLMNIMLVPTNISPLY
modifications: 125I label (chloramine T method) where used as the labelled ligand
Q: Which Kd [1] does the source give for B1 here?
A: 3.1 nM

Q: What about the Rt (binding site concentration) (pmol/mg BBMV protein) [1] of the same binder?
A: 2.5

Q: And the Kd [2]?
A: 5.9 nM

Q: And the Rt (binding site concentration) (pmol/mg BBMV protein) [2]?
A: 2.7

Q: What about the fold difference in concentration of binding sites between Cry2Ab and Cry1Ac [3] of the same binder?
A: 3 fold

Q: What about the fold higher Kd than Cry1Ac [3] of the same binder?
A: 35 fold

Q: What about the concentration at which binding reached a maximum [4] of the same binder?
A: 20 nM

Q: And the concentration at which the saturation curve deviated from linearity [4]?
A: 5 nM

Q: What about the fold difference in concentration of binding sites between Cry2Ab and Cry1Ac [5] of the same binder?
A: 3 fold

Q: And the fold higher Kd than Cry1Ac [5]?
A: 35 fold
